Results on 9 molecules are retold here after patent US20240383999A1 (University of Texas, published 2024).

A value given as a limit tells only on which side of the number the result lay.

The target in assay [1] is T1, Human recombinant CD5L protein (Sino Biological, Catalog Number 10791-H08H) (human, UniProt O43866 20-347).
T1 construct: Bought protein; also called human CD5L; CD5L-His; not shown: 6xHIS-tag
T1 sequence (looked up): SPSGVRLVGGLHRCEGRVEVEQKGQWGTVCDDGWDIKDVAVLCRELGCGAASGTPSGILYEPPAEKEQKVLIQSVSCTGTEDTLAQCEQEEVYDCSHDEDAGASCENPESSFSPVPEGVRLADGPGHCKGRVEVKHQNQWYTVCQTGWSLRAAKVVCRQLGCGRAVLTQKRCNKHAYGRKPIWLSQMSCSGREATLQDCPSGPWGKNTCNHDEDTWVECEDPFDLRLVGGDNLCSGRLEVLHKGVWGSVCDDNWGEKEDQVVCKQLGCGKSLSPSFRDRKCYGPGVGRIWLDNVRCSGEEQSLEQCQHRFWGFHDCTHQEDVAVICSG
Description: BLI (Octet RED96), antibody on Protein A biosensors, CD5L-His in solution, global fit. As to the method:
Kinetic binding parameters (KD, kon, and koff) in (Table 11) were determined using Octet RED96 instrument and binding curves are shown in FIG. 17. […] KDs are calculated using Octet software with global fitting model.
On the technique in general: BLI is a label-free optical method that tracks binding on a fibre tip over time.

Assay [2] addresses T1, Human recombinant CD5L protein (Sino …). Nature of the assay: titration ELISA, human CD5L coated on plate. As to the method: FIG. 11. […] Bound antibody was detected using a secondary antibody against rabbit IgG conjugated with HRP and TMB substrate for detection of A450 nm. EC₅₀ was estimated using GraphPad software by applying a 4-parameter fitting to calculate binding affinity of the antibodies.
Binding constants (EC₅₀) of a panel of monoclonal antibodies were estimated by titration ELISA, and the data were analyzed using the 4-parameter curve fitting with GraphPad Prism program (Table 6).
On the technique in general: ELISA stands for enzyme-linked immunosorbent assay.

For assay [3] the target is unchanged. Description: BLI (Octet RED96), antibody on protein A biosensors, CD5L 0.1-200 nM in solution, 1:1 fit. Here is the method: All experiments were performed with shaking at 1,000 rpm. Background wavelength shifts were measured from reference biosensors that were loaded only with antibody. ForteBio's data analysis software was used to fit the data to a 1:1 binding model to extract an association rate and dissociation rate.

B1: CD5L-35Hu-4 (antibody, V domains shown)
VH: QVQLVESGGGVVQPGRSLRLSCAASGIDLSDYYMTWVRQAPGKGLEYIGIIYASGNAYFASWAKGRFTISRDNSTNTVFLQMNSLRAEDTAVYYCARNIGGSSNLWGQGTLVTVSS
VL: ELQLTQTPSSLSASVGDRVTIKCQASERIYNNLAWYQQKPGKAPKLLFYSASTLASGVPSRFSGSGSGTDFTLTISSLQPEDFATYYCQCTGYGTTYGLVFGGGTKVEIK
notes: also called humanized CD5L-35Hu mAb (CD5L-35Hu-H2 + CD5L-35Hu-K2)
As for B1, in assay [1], the Kd was less than 0.001 nM, the koff was less than 1e-07 s⁻¹ and the on-rate constant (kon) amounted to 106000 M⁻¹ s⁻¹.

B2: H-447 (antibody, V domains shown)
VH: EVQLVQSGGGLVQPGGSLRLSCAASGFTVSSNYMSWVRQAPGKGLEWVSVIYSGGSTYYADSVKGRFTISRHNSKNTLYLQMNSLRAEDTAVYYCARESAVAGWGMDVWGKGTTVTVSS
VL: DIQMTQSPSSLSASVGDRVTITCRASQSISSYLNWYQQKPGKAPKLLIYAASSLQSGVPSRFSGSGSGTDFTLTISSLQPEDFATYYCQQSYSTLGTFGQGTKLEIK
Take B2: in assay [2], the EC50 came out at 0.25 µg/mL. The dissociation constant Kd in assay [3] came out at 28.7 nM.

B3: R-13 (antibody, V domains shown)
VH: QSLEESGGRLVTPGTPLTLTCTVSGFSLSSYPMSWVRQAPGKGLEWIGIITSGGSIFYATWANGRFTISKTSTTVDLKITSPTTEDTATYFCARGYSSGTMMSSNLWGQGTLVTVSS
VL: ELVLTQTPASVSEPVGGTVTIKCQASESISTYLSWYQQKPGQRPKLLIYRASTLESGVPSRFKGSGSGTEYTLTISGVQCADAATYYCQQGYTYKNVDNAFGGGTEVVVK
As for B3, the EC50 in assay [2] was determined as 0.116 µg/mL. The Kd in assay [3] came to 1.72 nM.

B4: R-34 (antibody, V domains shown)
VH: QSVKESGGRLVTPGTPLTLTCTVSGFSLSSSGMSWVRQAPGKGLEWIGLTFPSGSASYASWAKGRFTVSRTSTTVDLNLTSPTTEDTATYFCAHVGATTGRDFWGQGTLVTVSS
VL: ELVMTQTASSVSAAVGGTVTISCQSSQNIYNNRWSWYQQKPGQPPKLLIYQASTLASGVPSRFKGSGSGTQFTLTISGVQCDDAATYYCAGGYSGTIFTFGGGTELEIK
Take B4: the half-maximal effective concentration (EC50) in assay [2] turned out to be 0.22 µg/mL. Also, the equilibrium dissociation constant (Kd) in assay [3] came out at 1.35 nM.

B5: R-35 (antibody, V domains shown)
VH: AAVKESGGRLVTPGTPLTLTCTVSGIDLSDYYMTWVRQAPGKGLEYIGIIYASGNAYFASWAKGRFTISRTSSTTVDLNVASPTTEDTATYFCARNIGGSSNLWGQGTLVTVSS
VL: ELDMTQTPASVSEPVGGTVTIKCQASERIYNNLAWYQQKPGQPPKLLFYSASTLASGVPSRFKGSGSGTEFTLTISDLECADAAIYYCQCTGYGTTYGLVFGGGTEVEI
notes: also called anti-CD5L antibody R-35; CD5L antibody (R-35)
Consider B5, for which the concentration for a half-maximal effect (EC50) in assay [2] worked out at 0.169 µg/mL. Also, in assay [3], the Kd was 0.78 nM.

B6: R-18 (antibody, V domains shown)
VH: QSVKESGGRLVTPGTPLTLTCTVSGFSLSNYAMSWVRQAPGKGLEWIGIIVTSGSTYYASWAKGRFTISKTSTTVDLKMTSLTAADTATYFCARHAYSIGSSLWGQGTLVTISS
VL: ELDLTQTPPSASEPVGGTVTIKCQASESISVRLAWYQQKPGQPPKLLIYKASNLPSGVPSRFKGSGSGTEFTLTISDLECDDAATYYCRNYYDISNNGAGFGGGTEVEIK
With B6, the 50% effective concentration (EC50) in assay [2] stood at 0.19 µg/mL. Besides, the equilibrium dissociation constant (Kd) in assay [3] was found to be 1.56 nM.

B7: R-3 (antibody, V domains shown)
VH: QSLKESGGRLVKPDETLTITCTASGIDLTSGTVGWFRQAPGKGLEWIGIIRGSGSTYYATWAKGRFTISKTSTTVDLKLTSPTTEDTATYLCARAFPGYNTFFNFWGQGTLVTISS
VL: ELDLTQTPSSVEAAVGGTVTIKCQASESIGNALAWYQQKPGQPPKLLIWKASNLESGVPPRFKGSGSGTEFTLTISDLECADAATYYCQRYYFNGVSVEIVFGGGTEVVVKG
On to B7, for which the EC50 in assay [2] is 0.183 µg/mL. Besides, the Kd in assay [3] is 2.18 nM.

B8: R-45 (antibody, V domains shown)
VH: QSVKESGGRLVTPGTPLTLTCTVSGFSINDFHMCWVRQAPGKGLEYIGMIGTGGSAYYATWTKGRFTISRTSTTVDLKITSPTTEDTATYFCARRDWSDGGYSLLWGQGTLVTVSS
VL: ELDLTQTPASVSEPVGGTVTIKCQASQSIRTYLNWYQQKPGQPPKLLIYSASTLASGIPSRFKGSGSGTQFTLTISDLECADAATYYCQQGYYWSDVENTFGGGTEVEIN
B8: the EC50 in assay [2] came out at 0.0788 µg/mL. The Kd in assay [3] came to 2.97 nM.

B9: R-40 (antibody, V domains shown)
VH: QSVKESGGRLVKPDETLTITCTVSGIDLSRYSIQWVRQAPGGGLQWIGVMSIGSSAYYANWAKGRFTISKTSSTTVDLTMTSLTAADTATYFCARSNLYRGAFDPWGPGTLVTISS
VL: ELVMTQTPASVEAAVGGTVTIKCQSSESVYKNNYLSWYQLKPGQPPKLLFYSASTLASRVPSRFSGSGSGTQFTLTISDLECDDAATYYCAGYYGSSSVDRYTFGGGTEVEIK
For the molecule B9, in assay [2], the EC50 was determined as 0.21 µg/mL. In addition, the dissociation constant Kd in assay [3] came to 1.74 nM.

In general, Kd refers to the equilibrium constant for the complex coming apart. By koff is commonly meant the first-order rate constant of dissociation. In general, kon refers to a measure of how fast the partners come together. A word on the EC50: it is the concentration needed to bring the measured effect to its halfway point.
